Tests used:
[1] = biological target: the molecule itself; test: cryo-EM structure; GPRC5D and scFv150_18 co-expressed in Hi5 insect cells, complex purified by TALON IMAC and Superdex 200 in LMNG/CHS, 20 mM HEPES pH 7.4, 100 mM NaCl; C2 symmetry, 3.34 Å
[2] = biological target: T1, WT GPRC5D expressed on HEK293T cells (Homo sapiens, UniProt Q9NZD1); test: flow cytometry on cells; HEK293T cells transiently transfected with WT or mutated GPRC5D, incubated with purified IgG150_18 at different concentrations for 60 min, detected with goat anti-human IgG (Fc specific)-FITC at 4 °C; % of total, normalized to expression level; conditions: one partner purified
T1 construct: human GPRC5D, UniProt Q9NZD1; also called GPRC5D-WT; source: HEK293T, transiently transfected, on cells

B1: human GPRC5D (residues 1-298) with N-terminal BRIL fusion, cryo-EM construct (receptor, UniProt Q9NZD1 1-298, looked up)
chain: MYKDCIESTGDYFLLCDAEGPWGIILESLAILGIVVTILLLLAFLFLMRKIQDCSQWNVLPTQLLFLLSVLGLFGLAFAFIIELNQQTAPVRYFLFGVLFALCFSCLLAHASNLVKLVRGCVSFSWTTILCIAIGCSLLQIIIATEYVTLIMTRGMMFVNMTPCQLNVDFVVLLVYVLFLMALTFFVSKATFCGPCENWKQHGRLIFITVLFSIIIWVVWISMLLRGNPQFQRQPQWDDPVVCIALVTNAWVFLLLYIVPELCILYRSCRQECPLQGNACPVTAYQHSFQVENQELSR
notes: human GPRC5D, UniProt Q9NZD1, residues 1-298; Order at the N-terminus as printed: haemagglutinin signal peptide, Flag tag, BRIL, then GPRC5D 1-298, HRV 3C site, 10x His; Membranes were treated with iodoacetamide before solubilisation; also called hGPRC5D; GPRC5D homodimer; not shown: BRIL (thermostabilized E. coli apocytochrome b562RIL), N-terminal, kept; 10x His, C-terminal, kept
Q: B1 was tested. Which “stoichiometry N” value [1] did it give?
A: 2

B2: IgG150-18 with a single mutation at Y228 (HCDR2) (antibody, V domains shown)
VH: QVQLVESGGGLVHPGGSLRLSCAASGFTFRSHSMNWVRQAPGKGLEWVSSISSDSTYTAYADSVKGRFTISRDNAKNSLYLQMNSLRAEDTAVYYCARSGGQWKYYDYWGQGTLVTVSS
VL: SSELTQDPAVSVALGQTVRITCQGDSLRSYYASWYQQKPGQAPVLVIYGKNNRPSGIPDRFSGSSSGNTASLTITGAQAEDEADYYCNSRDSSGNPPVVFGGGTKLTVL
notes: as the heavy chain variable domain of m3 (from scFv m2, PDB 8YZK) with a single mutation at Y228 (HCDR2; number as printed for the scFv); human IgG heavy chain constant region; as the light chain of m3; Residue number counts as in the scFv structure, not on the IgG heavy chain; also called Y228 mutant antibody; source: HEK-293F, transfected, purified (protein A, Superdex 200)
Q: Does B2 bind [2]?
A: binds

B3: IgG150-18 (scFv150-18 cloned into human IgG format) (antibody, V domains shown)
VH: QVQLVESGGGLVHPGGSLRLSCAASGFTFRSHSMNWVRQAPGKGLEWVSSISSDSTYTYYADSVKGRFTISRDNAKNSLYLQMNSLRAEDTAVYYCARSGGQWKYYDYWGQGTLVTVSS
VL: SSELTQDPAVSVALGQTVRITCQGDSLRSYYASWYQQKPGQAPVLVIYGKNNRPSGIPDRFSGSSSGNTASLTITGAQAEDEADYYCNSRDSSGNPPVVFGGGTKLTVL
notes: heavy chain variable domain as in the scFv m2 (PDB 8YZK); human IgG heavy chain constant region; light chain variable domain as in the scFv m2 (PDB 8YZK); human light chain constant region; also called antibody150_18; scFv150_18 in its IgG format; source: HEK-293F, transfected, purified (protein A, Superdex 200)
Q: How did the EC50 [2] turn out when B3 was run?
A: ~4.6 nM

Reference: paper PMC11187071, “The binding mechanism of an anti-multiple myeloma antibody to the human GPRC5D homodimer” (Nature Communications, 2024)
